Data published in patent US20240400675A1 (published 2024).
Residue numbers refer to the chain shown, from its start. Read-outs that look alike come from different tables or passages of the source.

T1: CLDN6 I143V isotype (UniProt P56747 1-220)
T1 chain: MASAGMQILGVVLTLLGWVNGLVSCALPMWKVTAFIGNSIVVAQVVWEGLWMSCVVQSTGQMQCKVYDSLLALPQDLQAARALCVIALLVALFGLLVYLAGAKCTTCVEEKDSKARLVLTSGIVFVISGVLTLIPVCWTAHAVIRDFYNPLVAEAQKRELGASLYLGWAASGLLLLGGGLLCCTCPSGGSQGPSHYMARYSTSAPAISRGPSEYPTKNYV

T2: human CLDN6 (UniProt P56747 1-220)
T2 chain: T1 chain with V143I

T3: human CLDN9 (UniProt O95484 1-217)
T3 chain: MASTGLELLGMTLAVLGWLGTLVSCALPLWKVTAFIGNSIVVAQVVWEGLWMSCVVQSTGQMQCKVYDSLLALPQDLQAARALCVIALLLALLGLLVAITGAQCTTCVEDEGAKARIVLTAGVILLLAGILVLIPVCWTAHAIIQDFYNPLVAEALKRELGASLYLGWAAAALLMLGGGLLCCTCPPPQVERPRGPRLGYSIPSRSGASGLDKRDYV

T4: mouse CLDN6 (mouse, UniProt Q9Z262 1-219)
T4 chain: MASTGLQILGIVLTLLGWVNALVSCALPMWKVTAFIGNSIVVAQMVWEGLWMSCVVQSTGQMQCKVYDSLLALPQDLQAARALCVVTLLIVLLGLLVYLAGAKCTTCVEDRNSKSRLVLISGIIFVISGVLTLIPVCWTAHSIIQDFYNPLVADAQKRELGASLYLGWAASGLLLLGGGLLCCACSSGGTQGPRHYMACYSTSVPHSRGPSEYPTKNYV

T5: cyno CLDN6
T5 chain: T1 chain with V143I, Q191R

B1: XENP34637 (C6-30_H2L1 x CD3 bsAb in the 1+1 Fab-scFv-Fc format) (bispecific antibody)
heavy: EVQLVQSGAEVKKPGESLRISCKTSGYTFTEYTMHWVRQMPGKSLEWMGGIDPNNGNTHYNQKFQGHVTISVDKSISTAYLQWSSLKASDTAMYYCARIYYFGRLYFDFWGAGTLVTVSSASTKGPSVFPLAPSSKSTSGGTAALGCLVKDYFPEPVTVSWNSGALTSGVHTFPAVLQSSGLYSLSSVVTVPSSSLGTQTYICNVNHKPSDTKVDKKVEPKSCDKTHTCPPCPAPPVAGPSVFLFPPKPKDTLMISRTPEVTCVVVDVKHEDPEVKFNWYVDGVEVHNAKTKPREEEYNSTYRVVSVLTVLHQDWLNGKEYKCKVSNKALPAPIEKTISKAKGQPREPQVYTLPPSREEMTKNQVSLTCDVSGFYPSDIAVEWESDGQPENNYKTTPPVLDSDGSFFLYSKLTVDKSRWEQGDVFSCSVMHEALHNHYTQKSLSLSPGK
scFv-Fc: not shown
light: not shown
B2: XENP34638 (C6-30_H2L1 x CD3 bsAb in the 2+1 Fab2-scFv-Fc format) (bispecific antibody)
heavy 1: B1 heavy
heavy 2: EVQLVQSGAEVKKPGESLRISCKTSGYTFTEYTMHWVRQMPGKSLEWMGGIDPNNGNTHYNQKFQGHVTISVDKSISTAYLQWSSLKASDTAMYYCARIYYFGRLYFDFWGAGTLVTVSSASTKGPSVFPLAPSSKSTSGGTAALGCLVKDYFPEPVTVSWNSGALTSGVHTFPAVLQSSGLYSLSSVVTVPSSSLGTQTYICNVNHKPSNTKVDKKVEPKSCGGGGSGGGGSQAVVTQEPSLTVSPGGTVTLTCGSSTGAVTTSNYANWVQQKPGKSPRGLIGGTNKRAPGVPARFSGSLLGGKAALTISGAQPEDEADYYCALWYSNHWVFGGGTKLTVLGKPGSGKPGSGKPGSGKPGSEVQLVESGGGLVQPGGSLRLSCAASGFTFSTYAMNWVRQAPGKGLEWVGRIRSKYNNYATYYADSVKGRFTISRDDSKNTLYLQMNSLRAEDTAVYYCVRHGNFGDSYVSWFAYWGQGTLVTVSSGGGGSGGGGSKTHTCPPCPAPPVAGPSVFLFPPKPKDTLMISRTPEVTCVVVDVKHEDPEVKFNWYVDGVEVHNAKTKPREEQYNSTYRVVSVLTVLHQDWLNGKEYKCKVSNKALPAPIEKTISKAKGQPREPQVYTLPPSREQMTKNQVKLTCLVKGFYPSDIAVEWESNGQPENNYKTTPPVLDSDGSFFLYSKLTVDKSRWQQGNVFSCSVMHEALHNHYTQKSLSLSPGK
light: not shown
B3: XENP34229 (C6-30_H1L1 x CD3 bsAb in the 1+1 Fab-scFv-Fc format) (bispecific antibody)
heavy: QVQLVQSGAEVKKPGASVKVSCKTSGYTFTEYTMHWVRQAPGQSLEWMGGIDPNNGNTHYNQKFQGRVTITVDKSASTAYMELSSLRSEDTAVYYCARIYYFGRLYFDFWGAGTLVTVSSASTKGPSVFPLAPSSKSTSGGTAALGCLVKDYFPEPVTVSWNSGALTSGVHTFPAVLQSSGLYSLSSVVTVPSSSLGTQTYICNVNHKPSDTKVDKKVEPKSCDKTHTCPPCPAPPVAGPSVFLFPPKPKDTLMISRTPEVTCVVVDVKHEDPEVKFNWYVDGVEVHNAKTKPREEEYNSTYRVVSVLTVLHQDWLNGKEYKCKVSNKALPAPIEKTISKAKGQPREPQVYTLPPSREEMTKNQVSLTCDVSGFYPSDIAVEWESDGQPENNYKTTPPVLDSDGSFFLYSKLTVDKSRWEQGDVFSCSVMHEALHNHYTQKSLSLSPGK
scFv-Fc: QAVVTQEPSLTVSPGGTVTLTCGSSTGAVTTSNYANWVQQKPGKSPRGLIGGTNKRAPGVPARFSGSLLGGKAALTISGAQPEDEADYYCALWYSNHWVFGGGTKLTVLGKPGSGKPGSGKPGSGKPGSEVQLVESGGGLVQPGGSLRLSCAASGFTFSTYAMNWVRQAPGKGLEWVGRIRSKYNNYATYYADSVKGRFTISRDDSKNTLYLQMNSLRAEDTAVYYCVRHGNFGDSYVSWFAYWGQGTLVTVSSEPKSSDKTHTCPPCPAPPVAGPSVFLFPPKPKDTLMISRTPEVTCVVVDVKHEDPEVKFNWYVDGVEVHNAKTKPREEQYNSTYRVVSVLTVLHQDWLNGKEYKCKVSNKALPAPIEKTISKAKGQPREPQVYTLPPSREQMTKNQVKLTCLVKGFYPSDIAVEWESNGQPENNYKTTPPVLDSDGSFFLYSKLTVDKSRWQQGNVFSCSVMHEALHNHYTQKSLSLSPGK
light: not shown

Assays:
Experiment in all cases: flow cytometry, HEK293E cells
[1] = target: T1, CLDN6 I143V isotype
[2] = target: T2, human CLDN6
[3] = target: T3, human CLDN9
[4] = target: T2, human CLDN6
[5] = target: T4, mouse CLDN6
[6] = target: T5, cyno CLDN6
[7] = target: T1, CLDN6 I143V isotype
[8] = target: T2, human CLDN6
[9] = target: T3, human CLDN9
[10] = target: T2, human CLDN6
[11] = target: T4, mouse CLDN6
[12] = target: T5, cyno CLDN6

Binder | EC50 [1] | EC50 [2] | EC50 [3] | EC50 [4] | EC50 [5] | EC50 [6] | EC50 [7] | EC50 [8] | EC50 [9] | EC50 [10] | EC50 [11] | EC50 [12]
B1 | 12.9 µg/mL | 20.6 µg/mL | 137 µg/mL | 2.38 µg/mL | 6.71 µg/mL | 3.19 µg/mL | – | – | – | – | – | –
B2 | 0.2 µg/mL | 0.435 µg/mL | 11.2 µg/mL | 0.244 µg/mL | 0.588 µg/mL | 0.267 µg/mL | – | – | – | – | – | –
B3 | – | – | – | – | – | – | 5.58 µg/mL | 6.49 µg/mL | 78.8 µg/mL | 3.48 µg/mL | 12 µg/mL | 5.65 µg/mL
